Reference: patent publication US20050170442

Target: T1, Biotin-labeled fluorescent peptide CPRPFSVPP(S*)PDK-(5-FAM) (not fully specified)
T1 chain: CPRPFSVPPSPDK

B1: GSK3α, rHuman (protein)
chain: MSGGGPSGGGPGGSGRARTSSFAEPGGGGGGGGGGPGGSASGPGGTGGGKASVGAMGGGVGASSSGGGPGGSGGGGSGGPGAGTSFPPPGVKLGRDSGKVTTVVATLGQGPERSQEVAYTDIKVIGNGSFGVVYQARLAETRELVAIKKVLQDKRFKNRELQIMRKLDHCNIVRLRYFFYSSGEKKDELYLNLVLEYVPETVYRVARHFTKAKLTIPILYVKVYMYQLFRSLAYIHSQGVCHRDIKPQNLLVDPDTAVLKLCDFGSAKQLVRGEPNVSYICSRYYRAPELIFGATDYTSSIDVWSAGCVLAELLLGQPIFPGDSGVDQLVEIIKVLGTPTREQIREMNPNYTEFKFPQIKAHPWTKVFKSRTPPEAIALCSSLLEYTPSSRLSPLEACAHSFFDELRCLGTQLPNNRPLPPLFNFSAGELSIQPSLNAILIPPHLRSPAGTTTLTPSSQALTETPTSSDWQSTDATPTLTNSS
- TR-FRET ratio (Em520/Em495) after kinase reaction, chymotrypsin development and Tb-streptavidin detection: with GSK3a, a higher TR-FRET ratio than without GSK3α is seen
- TR-FRET ratio (Em520/Em495) in the chymotrypsin titration: with GSK3α a higher TR-FRET ratio than without GSK3α is seen
- amount of enzyme/well needed for roughly 50% maximal signal at 10 µM ATP/well (TR-FRET enzyme titration): 0.05 µg/ml for GSK3α
